The values below come from paper PMC11573789.

What all share (assay): NanoBiT (ratiometric protein-fragment complementation assay in live yeast)
Holding throughout (details): four experimental replicates; read off a plot

One test concerns the target Caf40.
For another test, the target named is Eft2.
In test [1] the target is Nmd2/Upf2 [S. cerevisiae].

On to Upf1-SmBiT (from UniProt P30771) C122S, for which the other: NanoBiT ratio (log2 scale) was found to be 1.4 log2 with Caf40 and 1.1 log2 with Eft2.
Turning to “Upf1-SmBiT mutant C122S [S. cerevisiae] / Nmd2/Upf2 [S. cerevisiae] chain 1 C122S”, the screen value in test [1] was -2.5 log2.
